# Variants at the floor of the assay were thinned out.
# B1: TPR 5TU (parent)
# chain: GGAUCUUCUCGAUCUAACAAAAAAGACAAAUCUGCCACAAAGCUUGAGAGCAUCUUCGGAUGCAGAGGCGGCAGCCUUCGGUGGCGCGAUAGCGCCAACGUUCUCAACUAUGACACGCAAAACGCGUGCUCCGUUGAAUGGAGUUUAUCAUG
# Variants of: B1
# Assay: polymerase ribozyme fitness, log enrichment relative to wild type (log ratio); higher = more active; in vitro selection for triplet polymerase activity
# Procedure, shortened: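 Mutant libraries of both subunits of a heterodimeric triplet polymerase ribozyme were PCR-built, transcribed, and selected once in triplicate, with frozen incubation at −7 °C and capture of gel-excised extended constructs on streptavidin beads before RT-PCR. Illumina sequencing of input and output libraries was filtered to genotypes with ≥10 input reads and ≥1 read per output. Fitness is the logarithm of genotype enrichment over wild-type enrichment, using inverse-variance-weighted replicate averages. The logarithm is base 2.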
row,Variant,polymerase ribozyme fitness (log ratio)
1,A41C A106C,-0.881
2,A41G C96A,0.0745
3,A41U C54A C79U G88C U148C,≤ -4.2
4,G42A G58U A64G G68U G92C C95U C129U U134C,≤ -4.2
5,A41G A47U C51U A52C G88A G136U,≤ -4.2
6,G42A G59U C76U G88U C103G G152U,≤ -4.2
7,A41U U55A A142G,-2.45
8,A41U G83A A150U,-0.63
9,G42A C51G C75G C99U,≤ -4.2
10,A41C G50C G83U C95A C99U C105G A137C,≤ -4.2
11,A41C A89U C95U G124A C125G,-1.75
12,A41U G133U U135A A142G A147U,≤ -4.2
13,A41C U82C,-1.14
14,G42A G74C G83C A107U G112C,≤ -4.2
15,A40U U61A A107U G128U U151C,≤ -4.2
16,A41U A66C G88A A113C G143A U146C,≤ -4.2
17,A41C G67A G81U G94C A107C,≤ -4.2
18,A41C C103A,-1.44
19,A41C C57U C87G A98U G136U A147C,≤ -4.2
20,A41C A137G C149U,-2.44
21,A41C U77C G80A U102C U144G,≤ -4.2
22,A41G G42U A66U G74A U151G,≤ -4.2
23,A41C C75U C87A U148A,≤ -4.2
24,G42A C43A U82A A98G,≤ -4.2

row,Variant,polymerase ribozyme fitness (log ratio)
1,A41C C149A,-4.19
2,G42A C43A G48A G50C A66C C85U,≤ -4.2
3,A41C G59A G94A A119C,-1.52
4,A41C C95U A119G,-0.978
5,A41C A91C C118A C125A A150U,≤ -4.2
6,A41G C75G,-2.98
7,A41U C85G,-2.37
8,A41C U55A G133A,≤ -4.2
9,A41C A120U,-0.45
10,A41G G65A G143U,-3.42
11,A41C A49U U53A A60C G88U A122U U134A,≤ -4.2
12,A41G U55A C93U,-0.68
13,A41G U78C C116G,0.0342
14,A41U C75A C93U,≤ -4.2
15,A41C A49G U82A A91G,≤ -4.2
16,A40U U55A G86A G133U,≤ -4.2
17,G42A A52C C54A U56C G94C,≤ -4.2
18,G42A C116G,-3.99
19,A41U G83U U90G C93G A106U,≤ -4.2
20,A41U A52C A98U,-2.65
21,A41C G48A,-1.3
22,A41U C103G A113G C125A,≤ -4.2
23,A41C C63G A64C U111C,≤ -4.2
24,A41G U53A C85A,-2.72

row,Variant,polymerase ribozyme fitness (log ratio)
1,A41C C57G G136U,-3.64
2,A41C C85U C87U G133C G143A,-4.18
3,A41G C75G G92C U146A,≤ -4.2
4,A41G G59A U61A,-0.462
5,G42A G48A U102C C103A,≤ -4.2
6,G42A C79G U144C,≤ -4.2
7,G42A C54G U82C G94U,≤ -4.2
8,A41C A89U C123G,-1.41
9,A41U G83C A110G G126A,≤ -4.2
10,A41C A49C G50U C51A G92C A106G,≤ -4.2
11,G42A A60G C87G,≤ -4.2
12,A41U C85U A91U A107U,≤ -4.2
13,A41U U82A A142C,-2.88
14,A41C G83C,-0.571
15,A41G G88A G143A,≤ -4.2
16,G42A U55A C96A,-4.06
17,A41C C63U C76G C93A U127A,≤ -4.2
18,A41U G81A G84C C85A C96U G126A,≤ -4.2
19,G42A G48A G68A G86U C132A,≤ -4.2
20,A41U U144G G152A,-1.09
21,A41C G65A C93U G94U C103G,≤ -4.2
22,A41C C57U C96U,-0.458
23,A41U C76A,-1.99
24,A40U U56A G80C G84U C99A G143U,≤ -4.2

row,Variant,polymerase ribozyme fitness (log ratio)
1,A41C C57G,-1.09
2,A41C C85A C105G G126U,-3.3
3,A41U C96A C105A G117U U144G,≤ -4.2
4,A41C U45A G68A C85A C118G C129U U144C U146A,≤ -4.2
5,A41C C93U A97C U102G,≤ -4.2
6,A41C C85G A113C,-4.19
7,G42A G84A,-3.95
8,A41G A60U U130C,-0.614
9,A41C C69A,-2.53
10,A41U G83A,-0.754
11,A41U G83U,-1.35
12,A41G G84A A89G C103G,-3.2
13,A41C G58A,0.163
14,G42A A49C C54U C95U C118U,≤ -4.2
15,A41U U55A C79U G83A,≤ -4.2
16,A41C U61A A138U,-3.7
17,G42A C85U,≤ -4.2
18,G42A C87G,≤ -4.2
19,A41C C54A U56A A73U A89U U101G A115C C129G U134A,≤ -4.2
20,A41C A113U C114A,≤ -4.2
21,G42A G50A C76U G84U G92A A107C C116G,≤ -4.2
22,A41U G74A G94C,≤ -4.2
23,G42A A47U U53G A64U G94U A120U,≤ -4.2
24,A41C G59U C87U A120U A122C G124U U146C,-2.2

row,Variant,polymerase ribozyme fitness (log ratio)
1,G42A G50C U55A G84A G143U,≤ -4.2
2,A41U C87A A120C U139C A142U,≤ -4.2
3,G42A G86A C118A,≤ -4.2
4,A41U C93A A122G,-4.19
5,A41C G48C C57U G84A,-2
6,A41U C95U C99U G141C,-2.51
7,A41G A49C G68U C76U C93U A97U,≤ -4.2
8,A41U C103G G128U,≤ -4.2
9,A41C A47C U56A C85U,-1.41
10,A41C G50A G74A U82G C95U A107C,≤ -4.2
11,A41C C116G,-0.175
12,G42A G68C G94U,≤ -4.2
13,A41G G83C C99A,-2.03
14,A41G C51A G83A,-2.57
15,A41C U56A A91G A97G A142U,-3.86
16,A41C G50C G84A,≤ -4.2
17,G42A G58A A64C G65U G84U,≤ -4.2
18,A41U C85A A98G A122U G152U,≤ -4.2
19,G42A A73G C87U,≤ -4.2
20,A41C G42C C43G G84U C95U C96G,≤ -4.2
21,A41U U82G G86U A97U G124C,-3.18
22,A40U U55A G59A C79U U82G G83A G128A U139G G143A,≤ -4.2
23,A41C U134G,-2.46
24,A41C C63G G92U,-0.619

row,Variant,polymerase ribozyme fitness (log ratio)
1,G42A G92A C96U A98G U151G,≤ -4.2
2,A41U U56A C93A A121U,-3.16
3,A41C C57U A89U G92C C116G C125A,≤ -4.2
4,A41C C93U C105U,-1.68
5,G42A G59A,-4.11
6,A40U U82G G92A,-2.82
7,G42A G59A U102G,≤ -4.2
8,A40U G84U C85A,-0.755
9,A41G U53A U56C C76A A98G,-1.92
10,A41C G81U G86U U104C,-1.73
11,A41G G83C G143C,-3.18
12,A41C U56A U82A A150G,-1.45
13,A41C G83U G124U,-0.893
14,A41G C76U G86A G117A,-0.646
15,A41C G83A C116A,-0.205
16,A40U U53A,-0.83
17,A40U U53C,0.103
18,A41C G92U A98G C123G G133C U134A G152U,≤ -4.2
19,A41C G50A A52C C54U U56A C75U C87U U146G A150G,≤ -4.2
20,A41C A49C,-4.01
21,A41C C85U C99G C132G U139A,≤ -4.2
22,A41G G84U,-0.79
23,A41C G136A,0.215
24,A41C U53C C125G U144A,-2.53

row,Variant,polymerase ribozyme fitness (log ratio)
1,G42A G58C G59C G88C A91G A106C A107G,≤ -4.2
2,A41C A60G G92A A106U,-3.98
3,A40U G94U G136C,-4.02
4,A41C U135G,-3.54
5,A41G C85A U101G,-1.82
6,A41C U55C C85G C108U G126A,≤ -4.2
7,A41G C57G C76U G94A A110G C116G U139G,-4.11
8,G42A G50U U53A U55A G83A U90C U144A,≤ -4.2
9,A41U A120G G143A,-2.06
10,A41C C93G U144C,-3.7
11,A41C U53G,-3.43
12,A41C A91C,≤ -4.2
13,A41C A91G,-2.85
14,A41U G83U G84U A98U A120U G124A,-3.95
15,G42A U55A,-3.81
16,A41C A47U G59U U61A G70C G84U C125A,≤ -4.2
17,A41U C72G U90G C99G G112U C118U,≤ -4.2
18,A41U C87U A137U G143U,≤ -4.2
19,A41C G68C,≤ -4.2
20,A41U A120C C125A A142C,-4.12
21,G42A A142C U148G,≤ -4.2
22,A41C C63G G70C C85U A97C U144A,≤ -4.2
23,A41C A137C,-3.61
